How the values were obtained:
[1] = biological target: T1, Von Hippel Lindau protein (amino acids 54-213), fused at its N-terminus to a six-histidine-thioredoxin fusion … (human, UniProt P40337 54-213); test: co-expression in E. coli, Ni2+ affinity capture by the tag on VHL, SDS-PAGE
T1 construct: range 54-213; Subunit of the VHLbc complex, expressed from the pACE-VHLbc tricistron; also called VHL; HisTrxVHL; not shown: N-terminal six-histidine-thioredoxin fusion tag

Bud13p = biological target: T2, Bud13p (yeast, UniProt P46947 1-266); test: co-expression in E. coli, Ni2+ capture by the His6 tag on Snu17p, then S200 size exclusion chromatography
T2 construct: Stated to be full-length; subunit of the yeast RES complex
T2 sequence (looked up): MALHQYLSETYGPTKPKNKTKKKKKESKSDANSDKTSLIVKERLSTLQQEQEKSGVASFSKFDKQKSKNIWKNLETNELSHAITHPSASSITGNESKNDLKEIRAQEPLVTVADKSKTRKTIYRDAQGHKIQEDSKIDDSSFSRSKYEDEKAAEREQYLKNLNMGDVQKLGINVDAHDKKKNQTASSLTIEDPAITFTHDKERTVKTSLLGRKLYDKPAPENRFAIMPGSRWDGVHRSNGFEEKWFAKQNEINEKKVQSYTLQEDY

Pml1p = biological target: T3, Pml1p (yeast, UniProt Q07930 1-204); test: as above
T3 construct: Stated to be full-length; subunit of the yeast RES complex; also called Pm1lp
T3 sequence (looked up): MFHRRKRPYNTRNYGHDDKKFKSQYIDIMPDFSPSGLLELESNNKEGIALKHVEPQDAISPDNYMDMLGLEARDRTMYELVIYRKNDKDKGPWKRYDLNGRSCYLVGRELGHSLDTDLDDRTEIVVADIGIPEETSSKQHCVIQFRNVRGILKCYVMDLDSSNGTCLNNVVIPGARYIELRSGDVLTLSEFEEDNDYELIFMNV

[2] = biological target: T4, full-length human RAP74 with a C-terminal oligo-histidine tag (human, UniProt P35269 1-517); test: co-expression in E. coli, Ni2+ capture by the His tag on RAP74, then S200 size exclusion chromatography
T4 construct: Stated to be full-length; co-expressed with RAP30 in E. coli BL21(DE3); also called hRAP74; RAP74his; not shown: C-terminal oligo-histidine tag
T4 sequence (looked up): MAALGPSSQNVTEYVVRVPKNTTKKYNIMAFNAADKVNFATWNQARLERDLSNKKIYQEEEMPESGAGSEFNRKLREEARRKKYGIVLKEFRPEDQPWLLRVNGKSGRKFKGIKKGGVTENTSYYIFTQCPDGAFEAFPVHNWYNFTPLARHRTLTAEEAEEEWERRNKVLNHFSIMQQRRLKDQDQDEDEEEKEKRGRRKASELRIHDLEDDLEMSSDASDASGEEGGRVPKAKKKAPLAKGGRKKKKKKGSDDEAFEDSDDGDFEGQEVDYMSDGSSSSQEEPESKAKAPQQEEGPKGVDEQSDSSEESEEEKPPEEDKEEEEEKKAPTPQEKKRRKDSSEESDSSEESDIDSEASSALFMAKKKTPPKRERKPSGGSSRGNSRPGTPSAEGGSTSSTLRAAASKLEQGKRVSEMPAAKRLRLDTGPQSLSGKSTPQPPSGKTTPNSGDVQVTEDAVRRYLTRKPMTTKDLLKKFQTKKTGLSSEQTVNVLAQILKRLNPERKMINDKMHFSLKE

T1 sequence (P40337 54-213): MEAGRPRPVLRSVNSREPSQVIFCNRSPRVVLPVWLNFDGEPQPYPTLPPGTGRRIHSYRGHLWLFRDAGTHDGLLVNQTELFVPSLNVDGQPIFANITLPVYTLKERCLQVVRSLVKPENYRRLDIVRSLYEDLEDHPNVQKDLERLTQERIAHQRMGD

B1: full-length elongin b (other, human, UniProt Q15370 1-118, looked up)
chain: MDVFLMIRRHKTTIFTDAKESSTVFELKRIVEGILKRPPDEQRLYKDDQLLDDGKTLGECGFTSQTARPQAPATVGLAFRADDTFEALCIEPFSSPPELPDVMKPQDSGSSANEQAVQ
notes: Stated to be full-length
- binding result [1]: binds

B2: His6-tagged Snu17p (other, yeast, UniProt P40565 1-148, looked up)
chain: MNKIQQINDKELQSGILSPHQSWHNEYKDNAYIYIGNLNRELTEGDILTVFSEYGVPVDVILSRDENTGESQGFAYLKYEDQRSTILAVDNLNGFKIGGRALKIDHTFYRPKRSLQKYYEAVKEELDRDIVSKNNAEKLILAKKDQPN
notes: Stated to be full-length; subunit of the yeast RES complex; also called Snu17p-NHis; not shown: six-histidine tag fused to the N-terminus
- binding result (Bud13p): binds
- binding result (Pml1p): binds

B3: full-length human RAP30 (other, UniProt P13984 1-249, looked up)
chain: MAERGELDLTGAKQNTGVWLVKVPKYLSQQWAKASGRGEVGKLRIAKTQGRTEVSFTLNEDLANIHDIGGKPASVSAPREHPFVLQSVGGQTLTVFTESSSDKLSLEGIVVQRAECRPAASENYMRLKRLQIEESSKPVRLSQQLDKVVTTNYKPVANHQYNIEYERKKKEDGKRARADKQHVLDMLFSAFEKHQYYNLKDLVDITKQPVVYLKEILKEIGVQNVKGIHKNTWELKPEYRHYQGEEKSD
notes: Stated to be full-length; also called hRAP30
- binding result [2]: binds
